Laboratory results from paper PMC8699698, “Oligomeric States and Hydrodynamic Properties of Lysyl Oxidase-Like 2” (Biomolecules, 2021).
Where “and” joins values, the source holds several entries; their conditions need not be identical. Equal values may be shown once.

T1: full-length lysyl oxidase-like 2 (fl-LOXL2), wild type, Q9Y4K0
T1 chain: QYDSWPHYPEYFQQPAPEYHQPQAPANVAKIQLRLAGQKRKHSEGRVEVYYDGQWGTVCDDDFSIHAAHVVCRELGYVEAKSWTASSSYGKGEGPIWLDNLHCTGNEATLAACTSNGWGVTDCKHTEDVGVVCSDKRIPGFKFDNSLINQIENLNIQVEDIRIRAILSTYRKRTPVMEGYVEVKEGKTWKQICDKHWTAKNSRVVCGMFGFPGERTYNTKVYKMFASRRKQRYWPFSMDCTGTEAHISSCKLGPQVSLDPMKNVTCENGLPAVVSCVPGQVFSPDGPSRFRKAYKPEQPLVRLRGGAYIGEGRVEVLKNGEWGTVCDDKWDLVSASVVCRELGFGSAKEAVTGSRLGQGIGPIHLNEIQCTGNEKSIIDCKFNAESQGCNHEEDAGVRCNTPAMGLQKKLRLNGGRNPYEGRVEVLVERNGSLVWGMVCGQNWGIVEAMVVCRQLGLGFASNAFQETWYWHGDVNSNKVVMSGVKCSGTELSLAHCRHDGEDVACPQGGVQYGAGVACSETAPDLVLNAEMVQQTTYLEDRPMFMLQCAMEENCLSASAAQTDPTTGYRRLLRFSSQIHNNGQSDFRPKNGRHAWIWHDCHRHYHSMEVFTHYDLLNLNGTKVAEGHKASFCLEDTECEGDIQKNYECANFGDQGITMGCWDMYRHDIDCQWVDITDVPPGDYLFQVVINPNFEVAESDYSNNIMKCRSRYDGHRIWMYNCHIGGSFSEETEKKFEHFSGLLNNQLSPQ


Key:
[1] = biological target: T1, full-length lysyl oxidase-like 2 …; test: AUC; Sedimentation velocity, 20 °C, 40,000 RPM, 50 mM HEPES pH 8.0, fl-LOXL2 at 0.88, 0.30 and 0.088 mg/mL, c(s) model of SEDFIT; self-association; settings: remark: other sources report otherwise
[2] = biological target: T1, full-length lysyl oxidase-like 2 …; test: SEC-MALS; Superdex 200 10/300, 50 mM Tris pH 8.0, 150 mM NaCl, 0.01% sodium azide; fl-LOXL2 at concentrations from 0.08 to 1.6 uM; self-association; settings: remark: other sources report otherwise
[3] = biological target: T1, full-length lysyl oxidase-like 2 …; test: native gel or EMSA; Native PAGE, NativePAGE 4 to 16% Bis-Tris gels, 125 V for 2 h; self-association of purified LOXL2 forms; settings: remark: other sources report otherwise
[4] = biological target: the molecule itself; test: as above

| percent of dimer [1] [%] | percent of monomer [1] [%] | percent of tetramer and pentamer together [1] [%] | stoichiometry N [1] | stoichiometry N [2] | stoichiometry N [3] | Binder | stoichiometry N [4] |
| --- | --- | --- | --- | --- | --- | --- | --- |
| 11.6 | 83.6 | 4.7 | 4 and 5 and 2 | 2 and 4 | 2 and 4 | full-length lysyl oxidase-like 2 (fl-LOXL2), wild type, Q9Y4K0 26-774 (enzyme, here or on the partner: lysine tyrosylquinone (LTQ) cofactor (precursor residues Lys653 and Tyr689), Cu2+ bound; N-glycans (N-glycosylation sites Asn288, Asn455, Asn644); lysine tyrosylquinone (LTQ) cofactor (precursor residues Lys653 and Tyr689), Cu2+ bound; N-glycans (N-glycosylation sites Asn288, Asn455, Asn644)) QYDSWPHYPEYFQQPAPEYHQPQAPANVAKIQLRLAGQKRKHSEGRVEVYYDGQWGTVCDDDFSIHAAHVVCRELGYVEAKSWTASSSYGKGEGPIWLDNLHCTGNEATLAACTSNGWGVTDCKHTEDVGVVCSDKRIPGFKFDNSLINQIENLNIQVEDIRIRAILSTYRKRTPVMEGYVEVKEGKTWKQICDKHWTAKNSRVVCGMFGFPGERTYNTKVYKMFASRRKQRYWPFSMDCTGTEAHISSCKLGPQVSLDPMKNVTCENGLPAVVSCVPGQVFSPDGPSRFRKAYKPEQPLVRLRGGAYIGEGRVEVLKNGEWGTVCDDKWDLVSASVVCRELGFGSAKEAVTGSRLGQGIGPIHLNEIQCTGNEKSIIDCKFNAESQGCNHEEDAGVRCNTPAMGLQKKLRLNGGRNPYEGRVEVLVERNGSLVWGMVCGQNWGIVEAMVVCRQLGLGFASNAFQETWYWHGDVNSNKVVMSGVKCSGTELSLAHCRHDGEDVACPQGGVQYGAGVACSETAPDLVLNAEMVQQTTYLEDRPMFMLQCAMEENCLSASAAQTDPTTGYRRLLRFSSQIHNNGQSDFRPKNGRHAWIWHDCHRHYHSMEVFTHYDLLNLNGTKVAEGHKASFCLEDTECEGDIQKNYECANFGDQGITMGCWDMYRHDIDCQWVDITDVPPGDYLFQVVINPNFEVAESDYSNNIMKCRSRYDGHRIWMYNCHIGGSFSEETEKKFEHFSGLLNNQLSPQ | – |
| – | – | – | – | – | – | K317R-LOXL2, full-length form (furin-cleavage site engineered) (enzyme, UniProt Q9Y4K0 26-774, looked up, Lysyl oxidase-like 2 (LOXL2), K317R mutant, the full-length species in the K317R-LOXL2 lane of the native gel; the bands at ~175 and ~340 kDa are ascribed to its full-length form; also called K317R mutant) QYDSWPHYPEYFQQPAPEYHQPQAPANVAKIQLRLAGQKRKHSEGRVEVYYDGQWGTVCDDDFSIHAAHVVCRELGYVEAKSWTASSSYGKGEGPIWLDNLHCTGNEATLAACTSNGWGVTDCKHTEDVGVVCSDKRIPGFKFDNSLINQIENLNIQVEDIRIRAILSTYRKRTPVMEGYVEVKEGKTWKQICDKHWTAKNSRVVCGMFGFPGERTYNTKVYKMFASRRKQRYWPFSMDCTGTEAHISSCKLGPQVSLDPMKNVTCENGLPAVVSCVPGQVFSPDGPSRFRRAYKPEQPLVRLRGGAYIGEGRVEVLKNGEWGTVCDDKWDLVSASVVCRELGFGSAKEAVTGSRLGQGIGPIHLNEIQCTGNEKSIIDCKFNAESQGCNHEEDAGVRCNTPAMGLQKKLRLNGGRNPYEGRVEVLVERNGSLVWGMVCGQNWGIVEAMVVCRQLGLGFASNAFQETWYWHGDVNSNKVVMSGVKCSGTELSLAHCRHDGEDVACPQGGVQYGAGVACSETAPDLVLNAEMVQQTTYLEDRPMFMLQCAMEENCLSASAAQTDPTTGYRRLLRFSSQIHNNGQSDFRPKNGRHAWIWHDCHRHYHSMEVFTHYDLLNLNGTKVAEGHKASFCLEDTECEGDIQKNYECANFGDQGITMGCWDMYRHDIDCQWVDITDVPPGDYLFQVVINPNFEVAESDYSNNIMKCRSRYDGHRIWMYNCHIGGSFSEETEKKFEHFSGLLNNQLSPQ | 2 and 4 |
| – | – | – | – | – | – | R314A/R316A/K317Q-LOXL2 (AAQ-LOXL2, a PACE4 cleavage site null mutant), full length (enzyme, UniProt Q9Y4K0 26-774, looked up, Lysyl oxidase-like 2 (LOXL2), full-length form with the PACE4 cleavage site mutated (text: R314A/R316A/K317Q); Secreted protein; also called R315A/R316A/K317Q mutant form of LOXL2) QYDSWPHYPEYFQQPAPEYHQPQAPANVAKIQLRLAGQKRKHSEGRVEVYYDGQWGTVCDDDFSIHAAHVVCRELGYVEAKSWTASSSYGKGEGPIWLDNLHCTGNEATLAACTSNGWGVTDCKHTEDVGVVCSDKRIPGFKFDNSLINQIENLNIQVEDIRIRAILSTYRKRTPVMEGYVEVKEGKTWKQICDKHWTAKNSRVVCGMFGFPGERTYNTKVYKMFASRRKQRYWPFSMDCTGTEAHISSCKLGPQVSLDPMKNVTCENGLPAVVSCVPGQVFSPDGPSAFAQAYKPEQPLVRLRGGAYIGEGRVEVLKNGEWGTVCDDKWDLVSASVVCRELGFGSAKEAVTGSRLGQGIGPIHLNEIQCTGNEKSIIDCKFNAESQGCNHEEDAGVRCNTPAMGLQKKLRLNGGRNPYEGRVEVLVERNGSLVWGMVCGQNWGIVEAMVVCRQLGLGFASNAFQETWYWHGDVNSNKVVMSGVKCSGTELSLAHCRHDGEDVACPQGGVQYGAGVACSETAPDLVLNAEMVQQTTYLEDRPMFMLQCAMEENCLSASAAQTDPTTGYRRLLRFSSQIHNNGQSDFRPKNGRHAWIWHDCHRHYHSMEVFTHYDLLNLNGTKVAEGHKASFCLEDTECEGDIQKNYECANFGDQGITMGCWDMYRHDIDCQWVDITDVPPGDYLFQVVINPNFEVAESDYSNNIMKCRSRYDGHRIWMYNCHIGGSFSEETEKKFEHFSGLLNNQLSPQ | 2 and 4 |
